Laboratory results taken from patent publication US20200165345A1 (GlaxoSmithKline, published 2020).
One block for each binder: values may come before it.

Experiments:
[1] = target: T1, human full-length TrkB receptor (human, UniProt Q16620 32-822); assay: cell-based or functional assay
[2] = target: T1, human full-length TrkB receptor; assay: cell-based or functional assay; remark: listed apart in the source
[3] = target: T1, human full-length TrkB receptor; assay: cell-based or functional assay; remark: listed apart in the source
mouse TrkB receptor = target: T2, mouse TrkB receptor (mouse, UniProt P15209 32-821); assay: method not detailed
T2 construct: whole, on cells; also called murine TrkB; rodent TrkB

rat TrkB receptor = target: T3, rat TrkB receptor (rat, UniProt Q63604 32-821); assay: method not detailed
T3 construct: whole, on cells; also called rodent TrkB
T3 sequence (Q63604 32-821): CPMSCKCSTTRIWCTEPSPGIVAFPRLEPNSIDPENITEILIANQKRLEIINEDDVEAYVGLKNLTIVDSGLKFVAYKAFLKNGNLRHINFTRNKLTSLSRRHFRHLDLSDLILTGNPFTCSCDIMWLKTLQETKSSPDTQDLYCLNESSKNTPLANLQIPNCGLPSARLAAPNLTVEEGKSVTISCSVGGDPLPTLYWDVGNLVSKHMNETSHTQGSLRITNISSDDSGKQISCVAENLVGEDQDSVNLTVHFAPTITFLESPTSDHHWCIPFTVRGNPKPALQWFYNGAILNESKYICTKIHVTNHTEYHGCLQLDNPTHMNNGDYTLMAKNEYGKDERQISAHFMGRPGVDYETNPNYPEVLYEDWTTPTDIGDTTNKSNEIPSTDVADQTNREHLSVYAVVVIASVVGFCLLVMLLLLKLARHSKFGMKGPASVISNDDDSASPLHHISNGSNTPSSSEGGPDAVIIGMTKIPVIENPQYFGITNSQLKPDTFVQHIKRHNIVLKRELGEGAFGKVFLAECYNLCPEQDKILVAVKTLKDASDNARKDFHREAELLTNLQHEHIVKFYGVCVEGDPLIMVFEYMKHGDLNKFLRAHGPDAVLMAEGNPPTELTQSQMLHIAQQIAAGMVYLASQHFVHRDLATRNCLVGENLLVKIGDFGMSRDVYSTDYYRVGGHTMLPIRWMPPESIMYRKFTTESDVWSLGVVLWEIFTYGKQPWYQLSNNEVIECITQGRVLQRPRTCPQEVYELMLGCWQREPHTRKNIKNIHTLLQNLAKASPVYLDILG

T1 sequence (Q16620 32-822 limits assumed): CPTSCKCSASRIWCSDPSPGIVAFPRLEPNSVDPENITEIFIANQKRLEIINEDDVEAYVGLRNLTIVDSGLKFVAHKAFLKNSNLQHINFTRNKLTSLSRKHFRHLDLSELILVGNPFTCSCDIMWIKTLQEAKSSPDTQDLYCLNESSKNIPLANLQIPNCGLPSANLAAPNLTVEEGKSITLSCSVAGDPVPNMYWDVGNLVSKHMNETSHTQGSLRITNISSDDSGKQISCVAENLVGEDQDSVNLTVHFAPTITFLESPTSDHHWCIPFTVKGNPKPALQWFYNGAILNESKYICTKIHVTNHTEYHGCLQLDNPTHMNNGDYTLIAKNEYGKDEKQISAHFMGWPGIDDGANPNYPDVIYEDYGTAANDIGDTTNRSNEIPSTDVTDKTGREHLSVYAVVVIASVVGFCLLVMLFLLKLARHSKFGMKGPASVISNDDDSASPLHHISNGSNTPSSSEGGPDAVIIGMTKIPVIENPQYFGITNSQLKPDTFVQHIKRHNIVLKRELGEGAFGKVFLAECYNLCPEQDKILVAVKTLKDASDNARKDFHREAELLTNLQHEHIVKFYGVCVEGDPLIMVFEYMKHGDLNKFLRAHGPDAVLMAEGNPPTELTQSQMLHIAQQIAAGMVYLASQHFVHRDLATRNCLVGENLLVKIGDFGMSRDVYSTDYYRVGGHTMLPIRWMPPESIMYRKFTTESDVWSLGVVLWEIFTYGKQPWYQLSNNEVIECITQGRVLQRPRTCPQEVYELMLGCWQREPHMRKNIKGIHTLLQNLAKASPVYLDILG
T2 sequence (P15209 32-821): as the sequence (Q63604 32-821) above, with M3T, T9S, T10A, I32V, K63R, G84S, T153M, I185L, T394S, N770S counted along it

B2: 3A3 (antibody, mouse IgG1, kappa, V domains shown)
VH: QVQLQQSGAELAKPGASVKMSCKASGYTFSSYWMHWVKQRPGQGLEWIGYINPSTGYTDYNQKFKDKATLTADKSSNTAYMQLSSLTSDDSAVYYCARSRAARYWGQGTTLTVSS
VL: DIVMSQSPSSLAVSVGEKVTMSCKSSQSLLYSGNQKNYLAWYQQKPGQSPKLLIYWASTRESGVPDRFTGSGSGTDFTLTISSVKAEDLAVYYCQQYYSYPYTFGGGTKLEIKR
cell survival, PC12 cells expressing human TrkB, EC50 [3]: 0.006 nM | EC50 (read off the curve); pTrkB relative activity in the presence of 10 nM BDNF [1]: ~0.7 nM | Potentiation of BDNF-induced agonism of TrkB (pTrkB, % of BDNF alone) [2]: ~160%

B3: 8E5 (antibody, mouse IgG1, kappa, V domains shown)
VH: EVQLVESGGDLVKPGGSLKLSCAASGFTFSTYGMSWVRQTPDKGLEWVATVSTGGTYTYYPDSVKGRFTISRDNAKNTLYLQMSSLKSEDTAMYYCARGGYSFAYWGQGTLVTVSA
VL: ENVLTQSPAIMSASPGEKVTMTCRASSSVSSSYLHWYQQKSGVSPKLWIYSTSNLASGVPARFSGSGSGTSYSLTISSVEAEDAATYYCQQYSGYPLTFGAGTKLELKR
cell survival, PC12 cells expressing human TrkB, EC50 [3]: 0.09 nM | neurite outgrowth, PC12 cells expressing human TrkB, EC50 [3]: 1.58 nM | Potentiation of BDNF-induced agonism of TrkB (pTrkB, % of BDNF alone) [2]: ~120%

Continued, values first:

EC50 (read off the curve); pTrkB relative activity in the presence of 10 nM BDNF [1]: ~10 nM | Activation of TrkB (pTrkB, Y515), EC50 [2]: 3.1 nM | Potentiation of BDNF-induced agonism of TrkB (pTrkB, % of BDNF alone) [2]: ~130%
B1: 1G11 (antibody, V domains shown)
VH: QVQLQQSGDDLVKPGASVKLSCKASGYTFTSYYINWIKQRPGQGLECIGRIAPGNTYYNEIFKGKAILTVDTSSSTAYIQLSSLSSEDSGVYFCARRGYEGALDYWGQGTSVTVSS
VL: DIVLTQSPATLSVTPGDSVSLSCRASQRISNNLHWYQQKSHESPRLLIKYVSQSISGIPSRFSGSGSGTDFTLSINSVETEDFGMYFCQQSNSWPLTFGAGTKLELKR

levels of phosphorylated TrkB in CHO-K1 cells, EC50 [3]: 0.65 nM | binding result (mouse TrkB receptor): binds | binding result (rat TrkB receptor): binds
B4: Humanised 1G11 (antibody, human IgG1, kappa, V domains shown)
VH: QVQLVQSGAEVKKPGSSVKVSCKASGYTFTSYYINWVRQAPGQGLESMGRIAPGNTYYNEIFKGRVTITADKSTSTAYMELSSLRSEDTAVYYCARRGYEGALDYWGQGTLVTVSS
VL: EIVLTQSPATLSLSPGERATLSCRASQRISNNLHWYQQKPGQAPRLLIKYVSQSISGIPARFSGSGSGTDFTLTISSLEPEDFAVYYCQQSNSWPLTFGQGTKLEIKR
notes: Straight graft of 1G11 CDRs with serine at Kabat position 47 of the heavy chain (H7, Lo1); human IgG1 Fc with L235A and G237A (EU numbering), Fc-disabled; also called humanised 1G11 (H7, Lo1); copies: 2 + 2
